# Measured values taken from the nanobody polyreactivity screen of Harvey et al. (2022).
# Test: yeast display, Sf9 membrane polyspecificity reagent, FACS + sequencing; frameworks hold sequencing errors
# Outline: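 Polyreactivity labels are assigned by the sorting gate from which each nanobody was recovered. The gates were low and high (top ~1%), set on anti-HA fluorescence for expression and streptavidin fluorescence for reagent binding. Before sorting, galactose-induced (36–48 hours) yeast display cells were stained for 1 hour at 4 °C with 10% biotinylated, detergent-solubilized Sf9 membrane reagent.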
row,Sequence,polyreactivity (PSR sort gate)
1,QVQLVESGGGLVQAGGSLRLSCAASGLTFKYYTMGWYRQAPGKERELVADISRTGRTSYADSVKGRFTISRDNAKNTVYLQMNSLKPEDTAVYYCNALAGIAQRRTGYYNPGDYWGQGTQVTVSS,high polyreactivity
2,QVQLVESGGGLVQAGGSLRLSCAASGLTFLDYDMGWYRQAPGKERELVADIDWSGGNTYYADSVKGRFTISRDNAKNTVYLQMNSLKPEDTAVYYCNTVTEAVTRRYDYWGQGTQVTVSS,low polyreactivity
3,QVQLVESGGGLVQAGGSLRLSCAASGLTFLKYAMGWYRQAPGKERELVAAITGSGGRTYYADSVKGRFTISRDNSKNTVYLHMNSLKPEDTAVYYCAADDYFHDDYWGLGTQVTVSS,high polyreactivity
4,QVQLVESGGGLVQAGGSLRLSCAASGLTFLLNAMGWYRQAPGKERELVAAITWRGGRTYYADSVKGRFTISRDNAKNTVYLQMNSLKPEDTAVYYCAAVPVVQSQPTYYYWGQGTQVTVSS,high polyreactivity
5,QVQLVESGGGLVQAGGSLRLSCAASGLTFLYNAMGWYRRATGKERELVASITNGGSTNYADSVKGRFTISRDNEKNTVYLQMNSLKPEDTAVYYCAKAAVDVGQRTPWEYDYWGQGTQVTVSS,low polyreactivity
6,QVQLVESGGGLVQAGGSLRLSCAASGLTFLYYAMGWYRQAPGKERELVAAISRSGGSTYYADSVKGRFTISRDNAKNTVYLQMNSLKPEDTAVYYCAAGRRGGKQGGTRGGDYWGQGTQVTVSS,high polyreactivity
7,QVQLVESGGGLVQAGGSLRLSCAASGLTFLYYSMGWYRQAPGKERELVAAISTRGGSTYYADSVKGRFTISRDNAKNTVYLQMNSLKPEDTAVYYCNAKLIVTPGRGDYWGQGTQVSVSS,high polyreactivity
8,QVQLVESGGGLVQAGGSLRLSCAASGLTFNFYAMGWYRQAPGKEREFVAAISRSGGSTHYADSVKGRFTISRDNAKYTVYLQMNSLKPEDTAVYYCAADGGRKNYDYWGQGTQVTVSS,high polyreactivity
9,QVQLVESGGGLVQAGGSLRLSCAASGLTFNKYAMGWYRQGPGKERELVAAISYRGGSTYYADSVKGRFTISRDNAKNTVYLQMNSLKPEDTAVYYCAVRYWALDDQYRYGSWGQGTQVTVSS,high polyreactivity
10,QVQLVESGGGLVQAGGSLRLSCAASGLTFPENAMGWYRQAPGKEREMVASISDSDGITFYADSVKGSFTISRDNAKNTVYLQMNSLKPEDTAVYYCAADVAIAIPFSYDYWGQGSQVTVSS,low polyreactivity
11,QVQLVESGGGLVQAGGSLRLSCAASGLTFPIYAMGWYRQAPGKEREYVAVITTSGGSTYYADSVKGRFTISRDNAKNTVYLQMNSLKPEDTAVYYCNARGIRHYYWGQGTQVTVSS,high polyreactivity
12,QVQLVESGGGLVQAGGSLRLSCAASGLTFPSYAMGWYRQAPGKERELVAAISSGDSTNYADSVKGRFTISRDNAKNTVYLQMNSLKPEDTAVYYCAVGLPHGGRRLYGSWYRFDYWGQGTQVTVSS,low polyreactivity
13,QVQLVESGGGLVQAGGSLRLSCAASGLTFPSYAMGWYRQAPGKVSELVAAISARGGGTYYADSVKGRFTISRDNAKNTVYLQMNSLKPEDTAVYYCAADPVYAGPGYDYWGQGTQVTVSS,high polyreactivity
14,QVQLVESGGGLVQAGGSLRLSCAASGLTFPYNVMGWYRQAPGKERELVASITSVGTTDYADSVKGRFTISRDNAKNTVYLQMNSLNPEDTAVYYCAADVTLFYWWYGKEDYDYWGQGTEVTVSS,low polyreactivity
15,QVQLVESGGGLVQAGGSLRLSCAASGLTFQEYAMGWYRQAPGKERELVAAISWSGGSTYYADSVKGRFTISRDNAKNTVYLQMNSLKPEDTAVYYCAAEAYEEFITGWYAYDYWGQGTQVTVSS,high polyreactivity
16,QVQLVESGGGLVQAGGSLRLSCAASGLTFQGYAMGWYRQAPGKERELVAAISSSGDITYYADSVKGRFTISRDNAKNTVYLQMNSLKPEDTAVYYCAAEAEYYVYGTYDYWGQGTQVTVSS,high polyreactivity
17,QVQLVESGGGLVQAGGSLRLSCAASGLTFQKNVMGWYRQAPGKERELVAAIRASSSSTYYADSVKGRFTISRDNAKNTVYLQMNSLKPEDTAVYYCAAPRLIKYDYWGQGTQVTVSS,high polyreactivity
